# From the supplement of paper PMC11246515
# ± gives the standard deviation of the averaged measurements.
# Assay: total protein half-life in vivo (active degradation + dilution); higher = more stable protein
# [1] = E. coli NCM3722 delta-clpP delta-lon delta-hslV, growth: N-lim chemostat, doubling time 6 h
# [2] = E. coli NCM3722 delta-lon, growth: N-lim chemostat, doubling time 6 h
# [3] = E. coli NCM3722 delta-smpB, growth: N-lim chemostat, doubling time 6 h
# [4] = wild type E. coli NCM3722, growth: C-lim chemostat, doubling time 3 h
# [5] = wild type E. coli NCM3722, growth: C-lim chemostat, doubling time 6 h
# [6] = wild type E. coli NCM3722, growth: C-lim chemostat, doubling time 12 h
# [7] = wild type E. coli NCM3722, growth: N-lim chemostat, doubling time 6 h
# [8] = wild type E. coli NCM3722, growth: N-lim chemostat, doubling time 12 h
# [9] = wild type E. coli NCM3722, growth: P-lim chemostat, doubling time 6 h
# [10] = wild type E. coli NCM3722, growth: P-lim chemostat, doubling time 12 h
# [11] = E. coli NCM3722 delta-hslV, growth: N-lim chemostat, doubling time 6 h
# [12] = E. coli NCM3722 delta-clpP, growth: N-lim chemostat, doubling time 6 h
Sequence,total protein half-life in vivo [1] [h],total protein half-life in vivo [2] [h],total protein half-life in vivo [3] [h],total protein half-life in vivo [4] [h],total protein half-life in vivo [5] [h],total protein half-life in vivo [6] [h],total protein half-life in vivo [7] [h],total protein half-life in vivo [8] [h],total protein half-life in vivo [9] [h],total protein half-life in vivo [10] [h],total protein half-life in vivo [11] [h],total protein half-life in vivo [12] [h]
MVDQAQDTLRPNNRLSDMQATMEQTQAFENRVLERLNAGKTVRSFLITAVELLTEAVNLLVLQVFRKDDYAVKYAVEPLLDGDGPLGDLSVRLKLIYGLGVINRQEYEDAELLMALREELNHDGNEYAFTDDEILGPFGELHCVAALPPPPQFEPADSSLYAMQIQRYQQAVRSTMVLSLTELISKISLKKAFQK [P0AF10],4.34 ± 0.54,4.01,3.44,2.48 ± 0.33,4.42 ± 0.24,12.5 ± 1.4,3.54,5.95 ± 0.25,4.55,12.2 ± 2,,
MQQVFFQETEFLNSVIDYDHKVETENLCLDIAYGTDKNFLFGCGISIASILKYNEGSRLCFHIFTDYFGDDDRKYFDALALQYKTRIKIYLINGDRLRSLPSTKNWTHAIYFRFVIADYFINKAPKVLYLDADIICQGTIEPLINFSFPDDKVAMVVTEGQADWWEKRAHSLGVAGIAKGYFNSGFLLINTAQWAAQQVSARAIAMLNEPEIIKKITHPDQDVLNMLLADKLIFADIKYNTQFSLNYQLKESFINPVTNDTIFIHYIGPTKPWHDWAWDYPVSQAFMEAKNASPWKNTALLKPNNSNQLRYSAKHMLKKHRYLKGFSNYLFYFIEKIKH,6.72 ± 0.28,5.78 ± 0.3,5.82 ± 0.17,2.95 ± 0.088,5.41 ± 0.61,10.4 ± 1.1,5.16 ± 1.2,11.7 ± 0.74,5.85 ± 0.45,11.3 ± 1,5.66 ± 0.42,
METVFDALKAMGKATSIELAARLDISREEVLNELWELKKAGFVDKSAYTWRVADNNVQQEQPAQAELPEEITTATVAKISECDLTATIEQRGPQTADELATLFGTTSRKVASTLAMAISKGRLIRVNQGGKFRYCIPGDNLPAEPKAASVSPLWLSASSSACHGVLIITVITPSPTKNSATKMPEN,5.08 ± 0.26,,1.14,1.42,,,,,,,,
MNDAIPRPQAKTRKALTPLLEIRNLTKSYDGQHAVDDVSLTIYKGEIFALLGASGCGKSTLLRMLAGFEQPSAGQIMLDGVDLSQVPPYLRPINMMFQSYALFPHMTVEQNIAFGLKQDKLPKAEIASRVNEMLGLVHMQEFAKRKPHQLSGGQRQRVALARSLAKRPKLLLLDEPMGALDKKLRDRMQLEVVDILERVGVTCVMVTHDQEEAMTMAGRIAIMNRGKFVQIGEPEEIYEHPTTRYSAEFIGSVNVFEGVLKERQEDGLVLDSPGLVHPLKVDADASVVDNVPVHVALRPEKIMLCEEPPANGCNFAVGEVIHIAYLGDLSVYHVRLKSGQMISAQLQNAHRHRKGLPTWGDEVRLCWEVDSCVVLTV,6.49 ± 0.28,6.22 ± 0.67,5.84 ± 0.35,2.93 ± 0.054,5.92 ± 0.21,11.2 ± 0.37,5.64 ± 0.26,11.5 ± 0.22,6.222 ± 0.037,11.8 ± 1.3,5.74 ± 0.33,6.64 ± 0.65
MGSINLRIDDELKARSYAALEKMGVTPSEALRLMLEYIADNERLPFKQTLLSDEDAELVEIVKERLRNPKPVRVTLDEL [P0C079],3.41 ± 0.82,,,,1.45,,,,,2.75,,1.33
MTSPNILLTRIDNRLVHGQVGVTWTSTIGANLLVVVDDVVANDDIQQKLMGITAETYGFGIRFFTIEKTINVIGKAAPHQKIFLICRTPQTVRKLVEGGIDLKDVNVGNMHFSEGKKQISSKVYVDDQDLTDLRFIKQRGVNVFIQDVPGDQKEQIPD,5.94 ± 1,,4.01 ± 0.37,3.52 ± 0.3,5.07 ± 0.32,6.95 ± 0.34,3.67,6.28 ± 0.71,4.28 ± 1.7,11 ± 0.5,4.08 ± 0.26,3.82 ± 0.62
MRACINNQQIRHHNKCVILELLYRQKRANKSTLARLAQISIPAVSNILQELESEKRVVNIDDESQTRGHSSGTWLIAPEGDWTLCLNVTPTSIECQVANACLSPKGEFEYLQIDAPTPQALLSEIEKCWHRHRKLWPDHTINLALAIHGQVDPVTGVSQTMPQAPWTTPVEVKYLLEEKLGIRVMVDNDCVMLALAEKWQNNSQERDFCVINVDYGIGSSFVINEQIYRGSLYGSGQIGHTIVNPDGVVCDCGRYGCLETVASLSALKKQARVWLKSQPVSTQLDPEKLTTAQLIAAWQSGEPWITSWVDRSANAIGLSLYNFLNILNINQIWLYGRSCAFGENWLNTIIRQTGFNPFDRDEGPSVKATQIGFGQLSRAQQVLGIGYLYVEAQLRQI,6.39 ± 0.56,5.81 ± 0.79,3.95 ± 0.094,> 4,1.97,3,5.48 ± 0.83,7.97,3.12,4.85,5.18 ± 0.99,6.61
MSQKLKVVTIGGGSSYTPELLEGFIKRYHELPVSELWLVDVEGGKPKLDIIFDLCQRMIDNAGVPMKLYKTLDRREALKDADFVTTQLRVGQLPARELDERIPLSHGYLGQETNGAGGLFKGLRTIPVIFDIVKDVEELCPNAWVINFTNPAGMVTEAVYRHTGFKRFIGVCNIPIGMKMFIRDVLMLKDSDDLSIDLFGLNHMVFIKDVLINGKSRFAELLDGVASGQLKASSVKNIFDLPFSEGLIRSLNLLPCSYLLYYFKQKEMLAIEMGEYYKGGARAQVVQKVEKQLFELYKNPELKVKPKELEQRGGAYYSDAACEVINAIYNDKQAEHYVNIPHHGQIDNIPADWAVEMTCKLGRDGATPHPRITHFDDKVMGLIHTIKGFEIAASNAALSGEFNDVLLALNLSPLVHSDRDAELLAREMILAHEKWLPNFADCIAELKKAH,6.05 ± 1.9,,3.97 ± 0.054,2.84 ± 0.34,6.45 ± 1.8,9.95 ± 0.38,4.52,8.23 ± 0.59,6.29 ± 0.62,11 ± 1.1,> 8,7.38
